# Assay results as given in PMC314469, “Protein Interaction Networks by Proteome Peptide Scanning” (PLoS Biology, 2004).
# T1: Boi1 SH3 (BOI1_YEAST), P38041
# T1 chain: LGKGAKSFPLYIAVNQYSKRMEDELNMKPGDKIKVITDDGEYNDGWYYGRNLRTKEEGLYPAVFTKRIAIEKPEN
# T2: Boi2 SH3 (BOI2_YEAST), P39969
# T2 chain: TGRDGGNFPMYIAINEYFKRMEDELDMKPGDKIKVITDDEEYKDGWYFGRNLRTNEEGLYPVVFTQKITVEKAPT
# T3: Myo5 SH3 (MYO5_YEAST), Q04439
# T3 chain: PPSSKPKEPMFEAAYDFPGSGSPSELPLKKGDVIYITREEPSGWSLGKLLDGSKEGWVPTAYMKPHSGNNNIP
# T4: Rvs167 SH3 (RV167_YEAST), P39743
# T4 chain: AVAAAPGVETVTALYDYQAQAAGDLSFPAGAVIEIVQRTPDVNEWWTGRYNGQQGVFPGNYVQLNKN
# T5: Yfr024 SH3 (LSB3_YEAST), P43603
# T5 chain: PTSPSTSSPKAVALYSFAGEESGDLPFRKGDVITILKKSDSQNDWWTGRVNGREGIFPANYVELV
# T6: Yhr016c SH3 (YSC84_YEAST), P32793
# T6 chain: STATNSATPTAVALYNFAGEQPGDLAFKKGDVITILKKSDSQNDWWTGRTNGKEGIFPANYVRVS
# How the values were obtained:
# Assay in all cases: SPOT array
# [1] = biological target: T1, Boi1 SH3 (BOI1_YEAST), P38041
# [2] = biological target: T2, Boi2 SH3 (BOI2_YEAST), P39969
# [3] = biological target: T3, Myo5 SH3 (MYO5_YEAST), Q04439
# [4] = biological target: T4, Rvs167 SH3 (RV167_YEAST), P39743
# [5] = biological target: Sho1 SH3 (SHO1_YEAST), P40073
# Chain of Sho1 SH3 (SHO1_YEAST), P40073 (P40073 295-366): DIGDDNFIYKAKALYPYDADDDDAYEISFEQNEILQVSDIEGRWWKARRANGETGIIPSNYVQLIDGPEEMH
# [6] = biological target: T5, Yfr024 SH3 (LSB3_YEAST), P43603
# [7] = biological target: T6, Yhr016c SH3 (YSC84_YEAST), P32793
Binder,"normalised SPOT signal, Boehringer light units (BLU); mean over the file's lines of this peptide [1]","normalised SPOT signal, Boehringer light units (BLU); mean over the file's lines of this peptide [2]","normalised SPOT signal, Boehringer light units (BLU); mean over the file's lines of this peptide [3]","normalised SPOT signal, Boehringer light units (BLU); mean over the file's lines of this peptide [4]","normalised SPOT signal, Boehringer light units (BLU); mean over the file's lines of this peptide [5]","normalised SPOT signal, Boehringer light units (BLU); mean over the file's lines of this peptide [6]","normalised SPOT signal, Boehringer light units (BLU); mean over the file's lines of this peptide [7]"
TKFTKPKPKQPVLP [YLR439W 17-30],295,6.1,445,23.4,57.7,0.2,2.8
TKKRKLGPKAPNPL [YOR004W 192-205],495,37.3,694,156,25,321,12.6
TKTDKSYPMSPVDA [YOR208W 444-457],52.5,19.3,150,105,36.1,50.1,15.5
TILERLTPLVPNNL [YKL017C 267-280],51.5,-0,249,198,39.5,202,32.2
TGYPRYFPQPPVQR [YLL058W 44-57],3760,34.1,5860,261,44.3,415,36.7
TINSRFYPPIPISE [YMR154C 67-80],95.6,6.9,76.4,130,86.9,304,82.1

# Next, values leading:
"normalised SPOT signal, Boehringer light units (BLU); mean over the file's lines of this peptide [1]","normalised SPOT signal, Boehringer light units (BLU); mean over the file's lines of this peptide [2]","normalised SPOT signal, Boehringer light units (BLU); mean over the file's lines of this peptide [3]","normalised SPOT signal, Boehringer light units (BLU); mean over the file's lines of this peptide [4]","normalised SPOT signal, Boehringer light units (BLU); mean over the file's lines of this peptide [5]","normalised SPOT signal, Boehringer light units (BLU); mean over the file's lines of this peptide [6]","normalised SPOT signal, Boehringer light units (BLU); mean over the file's lines of this peptide [7]",Binder
2030,21.1,27.7,189,44.1,157,43.3,TKRQRGEPSEPQQD [YGR241C 267-280]
8.4,-0,214,101,23.8,162,5.8,TGESRKAPLIPLLK [YGR099W 447-460]
79.3,21.9,118,313,72.9,132,50.4,TGGGRIVPGVPPGA [YGR054W 516-529]
1420,27.8,1190,3630,121,6310,1160,TGKPRKTPRPPFPF [YLR422W 149-162]
58.2,15.4,212,85.7,32.4,27,57.9,TLDEKESPSVPPTV [YKL148C 624-637]
463,103,556,430,301,607,148,TGKFRYMPFSPAGT [YPR135W 471-484]
546,11.1,158,32.6,56.3,95.1,21.2,TKAKKEKPKPPKPI [YMR044W 280-293]
